Residue numbers refer to the chain shown, from its start.
B1: PS3B919 (bispecific antibody, human IgG1, lambda, L234A L235A)
heavy 1: QVQLQQSGPRLVRPSQTLSLTCAISGDSVFNNNAAWSWIRQSPSRGLEWLGRTYYRSKWLYDYAVSVKSRITVNPDTSRNQFTLQLNSVTPEDTALYYCARGYSSSFDYWGQGTLVTVSSASTKGPSVFPLAPSSKSTSGGTAALGCLVKDYFPEPVTVSWNSGALTSGVHTFPAVLQSSGLYSLSSVVTVPSSSLGTQTYICNVNHKPSNTKVDKKVEPKSCDKTHTCPPCPAPEAAGGPSVFLFPPKPKDTLMISRTPEVTCVVVSVSHEDPEVKFNWYVDGVEVHNAKTKPREEQYNSTYRVVSVLTVLHQDWLNGKEYKCKVSNKALPAPIEKTISKAKGQPREPQVYTLPPSREEMTKNQVSLTCLVKGFYPSDIAVEWESNGQPENNYKTTPPVLDSDGSFLLYSKLTVDKSRWQQGNVFSCSVMHEALHNHYTQKSLSLSPG
light 1: QSALTQPASVSGSPGQSITISCTGTSSNIGTYKFVSWYQQHPDKAPKVLLYEVSKRPSGVSSRFSGSKSGNTASLTISGLQAEDQADYHCVSYAGSGTLLFGGGTKLTVLGQPKAAPSVTLFPPSSEELQANKATLVCLISDFYPGAVTVAWKADSSPVKAGVETTTPSKQSNNKYAASSYLSLTPEQWKSHRSYSCQVTHEGSTVEKTVAPTECS
heavy 2: EVQLVESGGGLVQPGGSLRLSCAASGFTFSSYAMSWVRQAPGKGLEWVSAISGGIGSTYYADSVKGRFTISRDNSKNTLWLQMNSLRAEDTAVYYCAKDGVGATPYYFDYWGQGTLVTVSSASTKGPSVFPLAPSSKSTSGGTAALGCLVKDYFPEPVTVSWNSGALTSGVHTFPAVLQSSGLYSLSSVVTVPSSSLGTQTYICNVNHKPSNTKVDKKVEPKSCDKTHTCPPCPAPEAAGGPSVFLFPPKPKDTLMISRTPEVTCVVVSVSHEDPEVKFNWYVDGVEVHNAKTKPREEQYNSTYRVVSVLTVLHQDWLNGKEYKCKVSNKALPAPIEKTISKAKGQPREPQVYTLPPSREEMTKNQVSLTCLVKGFYPSDIAVEWESNGQPENNYKTTPPVLDSDGSFFLYSRLTVDKSRWQQGNVFSCSVMHEALHNHYTQKSLSLSPG
light 2: QSVLTQPPSVSAAPGQKVTISCSGSSSNIGNNYVSWYQQLPGTAPKLLIYDNNKRPSGIPDRFSGSKSGTSATLGITGLQTGDEADYYCGTWDSSLSAYVFGTGTKVTVLGQPKAAPSVTLFPPSSEELQANKATLVCLISDFYPGAVTVAWKADSSPVKAGVETTTPSKQSNNKYAASSYLSLTPEQWKSHRSYSCQVTHEGSTVEKTVAPTECS
B2: PS3B912 (bispecific antibody, human IgG1, lambda, L234A L235A)
heavy 1: B1 heavy 1
light 1: B1 light 1
heavy 2: B1 heavy 2 with A23T, T28I, I55Y, S57A, T58P, S63T, W80Y, Y110D, T115I
light 2: B1 light 2 with Y50F
B3: PS3B920 (bispecific antibody, human IgG1, lambda, L234A L235A)
heavy 1: B1 heavy 1
light 1: B1 light 1
heavy 2: B1 heavy 2 with I55S, W80Y, T91S
light 2: B1 light 2
B4: PS3B921 (bispecific antibody, human IgG1, lambda, L234A L235A)
heavy 1: B1 heavy 1
light 1: B1 light 1
heavy 2: B1 heavy 2
light 2: B1 light 2 with N31I, Y99V, T103G, V107L
B5: PS3B922 (bispecific antibody, human IgG1, lambda, L234A L235A)
heavy 1: B1 heavy 1
light 1: B1 light 1
heavy 2: B1 heavy 2 with I55S, W80Y, T91S
light 2: B1 light 2 with N31I, Y99V, T103G, V107L
B6: PS3B931 (bispecific antibody, human IgG1, kappa, lambda, L234A L235A)
heavy 1: EVQLVESGGGLVKPGGSLRLSCAASGFTFSRYNMNWVRQAPGKGLEWVSSISTSSNYIYYADSVKGRFTFSRDNAKNSLDLQMSGLRAEDTAIYYCTRGWGPFDYWGQGTLVTVSSASTKGPSVFPLAPSSKSTSGGTAALGCLVKDYFPEPVTVSWNSGALTSGVHTFPAVLQSSGLYSLSSVVTVPSSSLGTQTYICNVNHKPSNTKVDKKVEPKSCDKTHTCPPCPAPEAAGGPSVFLFPPKPKDTLMISRTPEVTCVVVSVSHEDPEVKFNWYVDGVEVHNAKTKPREEQYNSTYRVVSVLTVLHQDWLNGKEYKCKVSNKALPAPIEKTISKAKGQPREPQVYTLPPSREEMTKNQVSLTCLVKGFYPSDIAVEWESNGQPENNYKTTPPVLDSDGSFLLYSKLTVDKSRWQQGNVFSCSVMHEALHNHYTQKSLSLSP
light 1: DIQMTQSPSSLSASVGDRVTITCRARQSIGTAIHWYQQKPGKAPKLLIKYASESISGVPSRFSGSGSGTDFTLTISSLQPEDFATYYCQQSGSWPYTFGQGTKLEIKRTVAAPSVFIFPPSDEQLKSGTASVVCLLNNFYPREAKVQWKVDNALQSGNSQESVTEQDSKDSTYSLSSTLTLSKADYEKHKVYACEVTHQGLSSPVTKSFNRGEC
heavy 2: EVQLVESGGGLVKPGGSLRLSCAASGFTFSRYNMNWVRQAPGKGLEWVSSINSNSRYIYYADSVKGRFTISRDSAKNSLYLQMNSLRAEDTAVYYCAKTMGDYYYYYGMDVWGQGTTVTVSSASTKGPSVFPLAPSSKSTSGGTAALGCLVKDYFPEPVTVSWNSGALTSGVHTFPAVLQSSGLYSLSSVVTVPSSSLGTQTYICNVNHKPSNTKVDKKVEPKSCDKTHTCPPCPAPEAAGGPSVFLFPPKPKDTLMISRTPEVTCVVVSVSHEDPEVKFNWYVDGVEVHNAKTKPREEQYNSTYRVVSVLTVLHQDWLNGKEYKCKVSNKALPAPIEKTISKAKGQPREPQVYTLPPSREEMTKNQVSLTCLVKGFYPSDIAVEWESNGQPENNYKTTPPVLDSDGSFFLYSRLTVDKSRWQQGNVFSCSVMHEALHNHYTQKSLSLSPG
light 2: SSELTQPPSVSGAPGQRVTISCAGSLSNIGAGYDVHWYQQLPGTAPKLLIYGNINRLSGVPERFSGSKSGTSASLAITGLQAEDGADYYCQSYDSSLSSYVFGTGTKVTVLGQPKAAPSVTLFPPSSEELQANKATLVCLISDFYPGAVTVAWKADSSPVKAGVETTTPSKQSNNKYAASSYLSLTPEQWKSHRSYSCQVTHEGSTVEKTVAPTECS
B7: PS3B926 (bispecific antibody, human IgG1, kappa, lambda, L234A L235A)
heavy 1: B6 heavy 1
light 1: B6 light 1
heavy 2: not shown
light 2: not shown
B8: PS3B928 (bispecific antibody, human IgG1, kappa, lambda, L234A L235A)
heavy 1: B6 heavy 1
light 1: B6 light 1
heavy 2: not shown
light 2: not shown
B9: PS3B917 (bispecific antibody, human IgG1, lambda, L234A L235A)
heavy 1: B1 heavy 1
light 1: B1 light 1
heavy 2: B6 heavy 2
light 2: QSVLTQPPSVSGAPGQRVTISCTGSSFNLGAGYDVHWYQQVPGTVPKLLIYDNSNRPSGVPDRFSGSKSGTSASLAITGLQAEDETVYYCQSYDSSLSGVVFGGGTKLTVLGQPKAAPSVTLFPPSSEELQANKATLVCLISDFYPGAVTVAWKADSSPVKAGVETTTPSKQSNNKYAASSYLSLTPEQWKSHRSYSCQVTHEGSTVEKTVAPTECS
B10: PS3B930 (bispecific antibody, human IgG1, kappa, lambda, L234A L235A)
heavy 1: B6 heavy 1
light 1: B6 light 1
heavy 2: B6 heavy 2
light 2: B9 light 2

Molecular target: Human PSMA on prostate cancer cell lines (C4-2B, 22RV1) (human, UniProt Q04609 1-750)
Assay: cell-based or functional assay

Sequence of Human PSMA on prostate cancer cell lines (C4-2B, 22RV1) (Q04609 whole entry): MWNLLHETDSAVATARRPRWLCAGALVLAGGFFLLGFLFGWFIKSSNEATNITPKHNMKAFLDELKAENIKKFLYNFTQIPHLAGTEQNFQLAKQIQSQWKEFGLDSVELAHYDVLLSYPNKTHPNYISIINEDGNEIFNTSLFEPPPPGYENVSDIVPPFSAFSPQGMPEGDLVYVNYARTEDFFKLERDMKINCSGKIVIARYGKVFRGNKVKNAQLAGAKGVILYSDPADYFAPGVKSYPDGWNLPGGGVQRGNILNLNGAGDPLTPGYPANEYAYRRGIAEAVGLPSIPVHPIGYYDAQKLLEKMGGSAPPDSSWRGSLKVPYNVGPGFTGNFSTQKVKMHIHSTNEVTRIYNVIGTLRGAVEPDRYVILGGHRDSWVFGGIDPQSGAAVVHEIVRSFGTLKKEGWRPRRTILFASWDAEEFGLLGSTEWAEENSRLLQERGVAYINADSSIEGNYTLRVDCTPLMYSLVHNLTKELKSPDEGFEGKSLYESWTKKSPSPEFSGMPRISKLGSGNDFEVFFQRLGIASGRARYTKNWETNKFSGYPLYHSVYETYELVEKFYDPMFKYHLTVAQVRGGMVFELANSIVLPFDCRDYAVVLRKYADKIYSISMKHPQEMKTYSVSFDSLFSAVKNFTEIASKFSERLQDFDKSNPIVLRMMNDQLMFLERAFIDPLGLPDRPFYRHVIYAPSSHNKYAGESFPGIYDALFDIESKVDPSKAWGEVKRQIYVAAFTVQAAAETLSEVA

Question: For B1, which “Tumor killing EC50 [M] (C4-2B + PAN-T cells, 72 h, flow cytometry)” value (“Tumor killing EC50 [M]” below) is on record?
Answer: 2.1e-10 M

Question: With B2 as the binder, how does the “Tumor killing EC50 [M]” value read?
Answer: 6.51e-11 M

Question: How did the “Tumor killing EC50 [M]” value turn out when B3 was run?
Answer: 3.2e-09 M

Question: For B4, which “Tumor killing EC50 [M]” value is on record?
Answer: 3.11e-11 M

Question: For B5, which “Tumor killing EC50 [M]” value is on record?
Answer: 7.79e-11 M

Question: B6 was tested. Which “Tumor killing EC50 [M]” value did it give?
Answer: 1e-08 M

Question: How did the “Tumor killing EC50 [M]” value turn out when B7 was run?
Answer: 4.78e-11 M

Question: How did the “Tumor killing EC50 [M]” value turn out when B8 was run?
Answer: 4.81e-10 M

Molecular target: Human CD3 on T cells / Jurkat cells (human, UniProt P07766 23-207)
Assay: cell-based or functional assay

Sequence of Human CD3 on T cells / Jurkat cells (P07766 23-207 limits assumed): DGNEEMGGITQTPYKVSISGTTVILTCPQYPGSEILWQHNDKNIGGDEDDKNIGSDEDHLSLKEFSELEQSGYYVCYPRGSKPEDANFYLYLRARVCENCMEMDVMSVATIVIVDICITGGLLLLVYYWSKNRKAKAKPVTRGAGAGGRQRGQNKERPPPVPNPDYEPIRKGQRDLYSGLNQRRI

Question: For B1, which “T cell activation EC50 [M] (CD25+ T cells, C4-2B co-culture, 72 h)” value (“T cell activation EC50 [M]” for short) is on record?
Answer: 1.87e-10 M

Question: Which “T cell activation EC50 [M]” value does the source give for B2 here?
Answer: 4.73e-11 M

Question: For B3, which “T cell activation EC50 [M]” value is on record?
Answer: 1.77e-09 M

Question: Which “T cell activation EC50 [M]” value does the source give for B4 here?
Answer: 2.11e-11 M

Question: With B5 as the binder, how does the “T cell activation EC50 [M]” value read?
Answer: 5.85e-11 M

Question: For B9, which “T cell activation EC50 [M]” value is on record?
Answer: 4.48e-12 M

Question: Which “T cell activation EC50 [M]” value does the source give for B10 here?
Answer: 2.4e-12 M

Question: With B6 as the binder, how does the “T cell activation EC50 [M]” value read?
Answer: 1e-08 M

Question: For B7, which “T cell activation EC50 [M]” value is on record?
Answer: 3.45e-11 M

Question: For B8, which “T cell activation EC50 [M]” value is on record?
Answer: 1.84e-10 M
